Source: patent publication US20190144863, “MODULATING THE CELLULAR STRESS RESPONSE” (The General Hospital Corporation, published 2019)

Key:
EZH2 [1] = molecular target: T1, EZH2 (UniProt Q61188 Q61188:1-746); test: FP filter; double-filter binding; 50 mM Tris pH 8.0, 100 mM NaCl, 5 mM MgCl2, 50 ng/ul yeast tRNA, 30 C; settings: folded; critical region nt 81-131
EZH2 [2] = molecular target: T1, EZH2; test: filter; double-filter binding, same buffer with yeast tRNA; extremely low affinity; settings: label: radiolabelled (cpm)

T1 sequence (Q61188 whole entry, one chain of several): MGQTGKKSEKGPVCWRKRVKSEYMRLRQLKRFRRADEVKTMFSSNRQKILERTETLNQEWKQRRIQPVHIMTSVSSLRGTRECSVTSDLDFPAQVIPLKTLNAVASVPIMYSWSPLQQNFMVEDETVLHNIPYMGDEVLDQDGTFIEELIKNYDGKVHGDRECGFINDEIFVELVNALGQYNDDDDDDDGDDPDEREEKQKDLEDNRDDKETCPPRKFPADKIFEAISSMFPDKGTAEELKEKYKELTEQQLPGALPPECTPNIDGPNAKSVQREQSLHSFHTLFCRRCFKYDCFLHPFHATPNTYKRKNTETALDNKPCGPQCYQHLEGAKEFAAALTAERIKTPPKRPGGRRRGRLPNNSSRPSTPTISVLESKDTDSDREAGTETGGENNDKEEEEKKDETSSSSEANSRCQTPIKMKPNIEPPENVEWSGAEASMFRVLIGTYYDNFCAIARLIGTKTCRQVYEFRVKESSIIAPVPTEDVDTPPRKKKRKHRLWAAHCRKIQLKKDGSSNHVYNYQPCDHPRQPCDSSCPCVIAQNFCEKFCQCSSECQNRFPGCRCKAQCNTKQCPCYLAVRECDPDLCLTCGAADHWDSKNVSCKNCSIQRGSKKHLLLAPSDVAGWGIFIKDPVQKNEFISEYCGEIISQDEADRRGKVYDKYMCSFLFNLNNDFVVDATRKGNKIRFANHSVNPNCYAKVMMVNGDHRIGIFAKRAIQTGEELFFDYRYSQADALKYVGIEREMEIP

Binder | Kd (EZH2 [1]) [nM] | Kd (EZH2 [2]) [nM]
B2 RNA full length (ssRNA) RNA: GGGGCUGGUGAGAUGGCUCAGUGGGUAAGAGCACCCGACUGCUCUUCCGAAGGUCCGGAGUUCAAAUCCCAGCAACCACAUGGUGGCUCACAACCAUCCGUAACGAGAUCUGACUCCCUCUUCUGGAGUGUCUGAAGACAGCUACAGUGUACUUACAUAUAAUAAAUAAAUAAAUCUUUAAAAAAAAA | 423 | –
B2 RNA domain I (ssRNA, [none]) RNA: GGGGCUGGUGAGAUGGCUCAGUGGGUAAGAGCACCCGACUGCUCUUCCGAAGGUCCGGAGUUCAAAUCCCAG | – | > 3000
B2 RNA domain I+II (ssRNA, [none]) RNA: GGGGCUGGUGAGAUGGCUCAGUGGGUAAGAGCACCCGACUGCUCUUCCGAAGGUCCGGAGUUCAAAUCCCAGCAACCACAUGGUGGCUCACAACCAUCCGUAACG | – | > 3000
CGUAACGAGAUCUGACUCCCUCUUCUGGAGUGUCUGAAGACA (ssRNA, [none]) [B2 RNA domain III] | – | > 3000
